Laboratory results taken from patent US20200123260A1 (Pfizer, published 2020).
Several values for one entry are separate records, joined by “and”; a condition that tells them apart may be missing. Equal entries are not always repeated. Each block holds one binder with its values, some of them ahead of it.

Experiments:
[1] = target: T1, Recombinant human CCL20 (Peprotech) (human, UniProt P78556 27-96); experiment: SPR stoichiometry, Ab captured on protein A, cytokine at saturation, N = 2
[2] = target: T2, Recombinant human IL13 (R&D Systems) (human, UniProt P35225 35-146, limits assumed); experiment: as above
T2 sequence (P35225 35-146 limits assumed): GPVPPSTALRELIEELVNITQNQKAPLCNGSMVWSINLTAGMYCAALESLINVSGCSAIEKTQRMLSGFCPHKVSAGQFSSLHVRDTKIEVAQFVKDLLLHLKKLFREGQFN

[3] = target: T1, Recombinant human CCL20 (Peprotech); experiment: SPR stoichiometry, Ab captured on protein A, cytokine at saturation, N = 1
[4] = target: T2, Recombinant human IL13 (R&D Systems); experiment: SPR stoichiometry, antibody captured on protein A
[5] = target: hTrkA in the SHC1 recruitment assay (U2OS, Discoverx Pathhunter) (human, UniProt P04629 33-796); experiment: cell-based or functional assay
Chain of hTrkA in the SHC1 recruitment assay (U2OS, Discoverx Pathhunter) (P04629 33-796): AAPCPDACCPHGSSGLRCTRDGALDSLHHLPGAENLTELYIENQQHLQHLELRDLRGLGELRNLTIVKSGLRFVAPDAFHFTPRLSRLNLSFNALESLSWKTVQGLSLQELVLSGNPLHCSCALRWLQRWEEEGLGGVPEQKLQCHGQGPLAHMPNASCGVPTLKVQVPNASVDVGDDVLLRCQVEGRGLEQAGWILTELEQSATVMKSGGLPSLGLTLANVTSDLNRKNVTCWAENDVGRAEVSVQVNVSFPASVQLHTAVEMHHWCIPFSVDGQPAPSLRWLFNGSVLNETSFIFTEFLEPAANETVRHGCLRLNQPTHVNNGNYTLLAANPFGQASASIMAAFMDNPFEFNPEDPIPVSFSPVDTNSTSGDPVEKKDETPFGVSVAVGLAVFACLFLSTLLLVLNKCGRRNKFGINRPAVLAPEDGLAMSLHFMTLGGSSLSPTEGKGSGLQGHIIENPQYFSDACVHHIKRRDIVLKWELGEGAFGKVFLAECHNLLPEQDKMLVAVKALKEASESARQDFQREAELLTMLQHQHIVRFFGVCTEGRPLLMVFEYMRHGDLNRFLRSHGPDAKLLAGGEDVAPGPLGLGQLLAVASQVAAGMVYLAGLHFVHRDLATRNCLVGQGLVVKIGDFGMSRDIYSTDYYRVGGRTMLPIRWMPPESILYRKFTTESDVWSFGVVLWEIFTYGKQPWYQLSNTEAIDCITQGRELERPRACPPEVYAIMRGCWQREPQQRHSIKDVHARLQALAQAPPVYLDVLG

[6] = target: hTrkB-a isoform fused to a small peptide epitope, in U2OS cells (Discoverx Pathhunter) (human, UniProt Q16620 32-822); experiment: cell-based or functional assay
Chain of hTrkB-a isoform fused to a small peptide epitope, in U2OS cells (Discoverx Pathhunter) (Q16620 32-430): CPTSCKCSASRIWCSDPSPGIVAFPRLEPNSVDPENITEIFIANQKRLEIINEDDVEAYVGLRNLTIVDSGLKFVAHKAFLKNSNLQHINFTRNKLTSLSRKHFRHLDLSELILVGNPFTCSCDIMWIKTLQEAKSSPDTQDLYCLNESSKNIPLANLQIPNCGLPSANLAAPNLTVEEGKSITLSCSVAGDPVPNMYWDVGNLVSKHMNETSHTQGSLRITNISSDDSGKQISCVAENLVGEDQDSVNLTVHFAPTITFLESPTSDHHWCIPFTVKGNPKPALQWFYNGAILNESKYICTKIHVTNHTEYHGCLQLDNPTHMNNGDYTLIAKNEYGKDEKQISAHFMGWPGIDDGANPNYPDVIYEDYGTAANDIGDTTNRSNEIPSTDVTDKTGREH

[7] = target: hTrkC in the SHC1 recruitment assay (U2OS, Discoverx Pathhunter) (human, UniProt Q16288 32-839); experiment: cell-based or functional assay
[8] = target: T3, mouse TrkB (nm_001025074) on HEK293 cells (mouse, UniProt P15209 32-821); experiment: cell-based ELISA on transfected 293 cells
T3 construct: whole, on cells; also called rmuTrkB-CRE
T3 sequence (P15209 32-821): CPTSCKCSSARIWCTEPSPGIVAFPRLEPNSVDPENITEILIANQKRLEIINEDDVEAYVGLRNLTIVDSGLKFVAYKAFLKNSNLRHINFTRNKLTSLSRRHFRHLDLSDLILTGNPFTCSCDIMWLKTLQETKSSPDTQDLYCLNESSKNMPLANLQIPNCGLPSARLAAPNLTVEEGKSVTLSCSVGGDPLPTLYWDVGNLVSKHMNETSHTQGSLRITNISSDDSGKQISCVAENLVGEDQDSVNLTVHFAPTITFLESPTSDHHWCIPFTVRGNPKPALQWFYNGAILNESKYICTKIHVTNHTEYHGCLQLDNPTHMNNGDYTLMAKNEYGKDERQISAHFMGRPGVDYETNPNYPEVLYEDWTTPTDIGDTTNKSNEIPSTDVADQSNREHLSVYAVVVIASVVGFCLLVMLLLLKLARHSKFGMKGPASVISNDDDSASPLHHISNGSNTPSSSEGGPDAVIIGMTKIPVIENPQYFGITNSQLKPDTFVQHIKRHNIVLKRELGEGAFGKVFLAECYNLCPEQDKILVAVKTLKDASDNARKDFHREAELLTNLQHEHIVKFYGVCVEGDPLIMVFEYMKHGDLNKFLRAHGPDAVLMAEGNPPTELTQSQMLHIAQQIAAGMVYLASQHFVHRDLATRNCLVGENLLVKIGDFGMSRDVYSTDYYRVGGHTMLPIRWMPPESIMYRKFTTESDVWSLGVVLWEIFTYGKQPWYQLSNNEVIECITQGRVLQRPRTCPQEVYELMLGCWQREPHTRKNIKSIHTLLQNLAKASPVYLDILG

[9] = target: T4, TrkB, Cat (Felis domesticus) on 293 cells (cat (Felis domesticus)); experiment: cell-based ELISA on transfected 293 cells
T4 construct: Whole entry with signal peptide; also called cat TrkB
T4 sequence (chain, as listed by the source limits assumed): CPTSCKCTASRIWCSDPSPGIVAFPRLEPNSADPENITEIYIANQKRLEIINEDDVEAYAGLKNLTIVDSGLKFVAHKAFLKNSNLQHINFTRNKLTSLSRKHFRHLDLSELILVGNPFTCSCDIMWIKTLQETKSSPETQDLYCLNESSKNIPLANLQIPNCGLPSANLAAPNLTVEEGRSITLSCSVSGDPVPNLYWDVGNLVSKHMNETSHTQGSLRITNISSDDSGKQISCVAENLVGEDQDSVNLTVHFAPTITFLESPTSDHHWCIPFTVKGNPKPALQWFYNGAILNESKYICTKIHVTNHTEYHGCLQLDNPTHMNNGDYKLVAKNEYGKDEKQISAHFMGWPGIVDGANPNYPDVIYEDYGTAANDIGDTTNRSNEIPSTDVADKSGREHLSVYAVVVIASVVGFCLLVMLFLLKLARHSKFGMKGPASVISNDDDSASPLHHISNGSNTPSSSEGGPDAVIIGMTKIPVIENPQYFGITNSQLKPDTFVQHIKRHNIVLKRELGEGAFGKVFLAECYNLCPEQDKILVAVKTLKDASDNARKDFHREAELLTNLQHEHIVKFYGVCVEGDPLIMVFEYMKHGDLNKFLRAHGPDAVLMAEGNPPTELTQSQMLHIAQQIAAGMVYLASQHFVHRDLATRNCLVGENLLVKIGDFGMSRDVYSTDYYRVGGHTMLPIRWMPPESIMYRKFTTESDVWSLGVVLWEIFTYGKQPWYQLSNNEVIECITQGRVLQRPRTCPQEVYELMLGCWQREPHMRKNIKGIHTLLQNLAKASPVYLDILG

rhTrkB-ECD-His = target: T5, rhTrkB-ECD-His (human, UniProt Q16620 32-430); experiment: competition ELISA: plate coated with rhTrkB-ECD-His; biotinylated humanized TOA-1 at 25 ng/ml mixed with unlabeled huTOA-1; streptavidin-HRP
T5 construct: extracellular domain
T5 sequence (Q16620 32-430): as the sequence (Q16620 32-430) above

[10] = target: T3, mouse TrkB (nm_001025074) on HEK293 …; experiment: cell-based ELISA on transiently transfected HEK293 cells
[11] = target: T4, TrkB, Cat (Felis domesticus) on 293 …; experiment: as above
[12] = target: T6, human TrkB (open reading frame from nm_006180) on HEK293 cells (human, UniProt Q16620 32-822); experiment: cell-based or functional assay
T6 sequence (Q16620 32-822): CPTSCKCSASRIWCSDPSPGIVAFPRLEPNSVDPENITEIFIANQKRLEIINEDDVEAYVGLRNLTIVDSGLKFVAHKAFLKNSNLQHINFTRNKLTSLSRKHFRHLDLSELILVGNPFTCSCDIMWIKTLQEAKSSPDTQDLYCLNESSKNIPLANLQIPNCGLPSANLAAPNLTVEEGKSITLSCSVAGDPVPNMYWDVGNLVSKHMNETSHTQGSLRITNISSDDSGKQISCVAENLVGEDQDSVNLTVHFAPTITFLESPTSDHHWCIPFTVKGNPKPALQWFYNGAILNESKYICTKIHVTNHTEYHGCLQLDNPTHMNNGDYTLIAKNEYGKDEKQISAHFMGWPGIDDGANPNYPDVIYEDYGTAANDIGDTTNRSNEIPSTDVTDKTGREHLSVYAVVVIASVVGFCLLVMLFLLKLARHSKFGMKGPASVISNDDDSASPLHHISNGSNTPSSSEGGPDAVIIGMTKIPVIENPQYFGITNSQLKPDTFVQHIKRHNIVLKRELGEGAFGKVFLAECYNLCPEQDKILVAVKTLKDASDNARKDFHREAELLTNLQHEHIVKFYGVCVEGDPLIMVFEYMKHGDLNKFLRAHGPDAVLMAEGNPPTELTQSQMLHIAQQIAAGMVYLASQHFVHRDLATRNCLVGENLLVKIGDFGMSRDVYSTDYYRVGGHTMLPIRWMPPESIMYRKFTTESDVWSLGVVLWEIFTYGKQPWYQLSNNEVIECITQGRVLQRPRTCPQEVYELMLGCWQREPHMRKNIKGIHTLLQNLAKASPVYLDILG

[13] = target: T6, human TrkB (open reading frame from …); experiment: cell-based or functional assay; remark: listed apart in the source
[14] = target: T7, recombinant human TrkC-Fc (rhTrkC-ECD, R&D system, 373-TC/TF) (human, UniProt Q16288 32-429); experiment: direct binding ELISA: plate coated with rhTrkC-ECD (Fc chimera) at 5 ug/ml, biotinylated antibody, streptavidin-HRP
T7 construct: extracellular domain; Bought protein; not shown: Fc part, not described

[15] = target: T8, rhTrkB-ECD (R&D #397-TR/CF) (human, UniProt Q16620 32-430); experiment: SPR (Biacore), TrkB ectodomain immobilised on CM5, antibody injected
T8 construct: extracellular domain; Bought protein; also called human TrkB-extracellular domain protein; human TrkB ectodomain protein
T8 sequence (Q16620 32-430): as the sequence (Q16620 32-430) above

[16] = target: T9, Mouse TrkB ectodomain protein (R&D #1494-TB/CF) (mouse, UniProt P15209 32-429); experiment: as above
T9 construct: extracellular domain; Bought protein; also called mouse TrkB-extracellular domain protein
T9 sequence (P15209 32-429): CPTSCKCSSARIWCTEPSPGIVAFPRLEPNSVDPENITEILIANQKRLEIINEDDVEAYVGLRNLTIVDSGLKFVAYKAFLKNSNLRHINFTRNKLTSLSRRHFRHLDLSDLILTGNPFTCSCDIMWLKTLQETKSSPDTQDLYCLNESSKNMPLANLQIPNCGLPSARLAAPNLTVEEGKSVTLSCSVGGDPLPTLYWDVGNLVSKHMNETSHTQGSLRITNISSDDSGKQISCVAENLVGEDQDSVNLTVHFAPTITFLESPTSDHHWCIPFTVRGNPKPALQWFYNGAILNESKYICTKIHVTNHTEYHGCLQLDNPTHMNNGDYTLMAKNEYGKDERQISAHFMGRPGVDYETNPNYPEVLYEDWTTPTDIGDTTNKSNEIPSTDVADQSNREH

[17] = target: T8, rhTrkB-ECD (R&D #397-TR/CF); experiment: competition ELISA: plate coated with rhTrkB-ECD; biotinylated chimeric TOA-1 at 25 ng/ml mixed with the unlabeled antibody; streptavidin-HRP
Chimeric TrkB (d4TrkA) = target: T10, Chimeric TrkB (d4TrkA) (human); experiment: cell-based ELISA on transfected 293 cells
T10 construct: TrkB residues 190-282 replaced by TrkA residues 187-281
T10 sequence (chain, as listed by the source mutant limits assumed): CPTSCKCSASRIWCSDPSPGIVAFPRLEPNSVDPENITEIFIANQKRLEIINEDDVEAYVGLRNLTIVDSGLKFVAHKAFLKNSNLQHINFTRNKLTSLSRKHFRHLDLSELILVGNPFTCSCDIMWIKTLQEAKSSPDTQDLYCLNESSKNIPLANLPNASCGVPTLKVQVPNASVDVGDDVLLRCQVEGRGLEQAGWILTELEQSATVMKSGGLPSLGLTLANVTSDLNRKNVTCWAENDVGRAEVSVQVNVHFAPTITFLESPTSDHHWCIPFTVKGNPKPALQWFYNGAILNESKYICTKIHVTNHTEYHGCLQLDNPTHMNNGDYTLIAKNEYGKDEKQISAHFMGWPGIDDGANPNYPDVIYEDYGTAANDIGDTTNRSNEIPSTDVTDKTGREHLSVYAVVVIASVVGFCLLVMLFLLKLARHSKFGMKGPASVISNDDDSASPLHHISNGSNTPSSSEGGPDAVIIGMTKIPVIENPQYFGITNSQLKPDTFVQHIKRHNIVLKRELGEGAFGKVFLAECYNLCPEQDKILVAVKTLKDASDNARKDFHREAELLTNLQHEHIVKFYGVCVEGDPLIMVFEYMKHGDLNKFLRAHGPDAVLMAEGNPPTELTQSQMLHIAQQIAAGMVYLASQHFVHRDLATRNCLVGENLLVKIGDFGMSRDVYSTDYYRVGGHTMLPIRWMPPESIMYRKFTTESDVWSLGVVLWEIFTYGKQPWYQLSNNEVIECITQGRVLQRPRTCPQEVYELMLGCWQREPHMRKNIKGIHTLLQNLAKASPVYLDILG

[18] = target: T11, human p75NTR (open reading frame from NM_002507) on HEK293 cells (human, UniProt P08138 29-427); experiment: FACS on transiently transfected HEK293 cells, FITC-labeled mouse anti-human IgG
T11 construct: whole, on cells; also called hu p75NTR
T11 sequence (looked up): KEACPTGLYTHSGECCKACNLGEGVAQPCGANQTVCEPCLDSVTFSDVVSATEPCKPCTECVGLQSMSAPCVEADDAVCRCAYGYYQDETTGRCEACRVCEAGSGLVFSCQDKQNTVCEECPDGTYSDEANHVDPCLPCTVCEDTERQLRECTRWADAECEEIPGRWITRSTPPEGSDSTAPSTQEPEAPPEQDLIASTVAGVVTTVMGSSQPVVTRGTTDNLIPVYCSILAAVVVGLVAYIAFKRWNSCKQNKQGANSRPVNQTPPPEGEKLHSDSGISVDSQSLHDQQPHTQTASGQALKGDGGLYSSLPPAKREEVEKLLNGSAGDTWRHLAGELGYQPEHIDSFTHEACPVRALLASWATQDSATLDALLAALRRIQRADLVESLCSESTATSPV

T1 sequence (P78556 27-96 limits assumed): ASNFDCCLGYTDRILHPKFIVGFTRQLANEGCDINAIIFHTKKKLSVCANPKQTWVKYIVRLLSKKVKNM

Binding Ratio [1]: 2 | Binding Ratio (measured, before normalisation) [1]: 2.18 | Binding Ratio [2]: 0 | Binding Ratio [3]: 2 | Binding Ratio (measured, before normalisation) [3]: 2.15 | binding result [4]: no binding
B1: C5 (anti-CCL20 antibody, clone C5, parental) (antibody, human IgG1, kappa, V domains shown)
VH: QVQLVQSGAEVKKPGSSVKVSCKASGGTFSSYAISWVRQAPGQGLEWMGGIIPIFGTANYAQKFQGRVTITADESTSTAYMELSSLRSEDTAVYYCAGGSITGTTPFDYWGRGTLVTVSS
VL: AIQLTQSPSSLTASVGDRVTITCRASQFASNDVGWYQQKPGKAPKLLIYAASSLQSGVPPRFSGSGSGTEFTFTISSLQPEDFATYYCLQDYTYPLTFGQGTKVEIKR
notes: also called anti-CCL20-clone5; CCL20-Clone 5

Fold-increase, SHC1 recruitment assay [5]: 1.1 fold | EC50, SHC1 recruitment assay [6]: 0.67 nM | Fold-increase, SHC1 recruitment assay [6]: 5.2 fold | Fold-increase, SHC1 recruitment assay [7]: 1 fold | EC50 [8]: 0.33 nM | EC50 [9]: 0.52 nM | IC50 (read off the curve) (rhTrkB-ECD-His): ~8 nM | EC50 [10]: 0.34 nM | EC50 [11]: 0.39 nM | EC50, hTrkB Cre-luc reporter assay, lot L40042-192 [12]: 0.24 nM and 0.39 nM and 0.61 nM | EC50, hTrkB Cre-luc reporter assay, lot L42385-008 [12]: 0.25 nM and 0.37 nM | EC50, hTrkB Cre-luc reporter assay, lot L42385-024 [12]: 0.13 nM | EC50, hTrkB Cre-luc reporter assay, lot L42385-152 [12]: 0.1 nM | Fold-increase, hTrkB Cre-luc reporter assay, lot L42385-024 [12]: 5.3 fold | Fold-increase, hTrkB Cre-luc reporter assay, lot L42385-152 [12]: 4.5 fold | Cre-luciferase reporter, maximum fold-increase (FIG. 38) [13]: 5 fold | binding result [14]: no binding (tested: about 6.7 nM) | Kd [15]: 9.4 nM | Kd [16]: 11.4 nM | IC50 (read off the curve) [17]: ~6 nM | binding result (Chimeric TrkB (d4TrkA)): binds | binding result [18]: no binding
B2: TAM-163 (huTOA-1 v1.0/1.4) (antibody, human IgG1, kappa, V domains shown)
VH: EVQLVESGGGLVQPGGSLRLSCAASGYSFTAYFMNWVRQAPGKGLEWVARINPNNGDTFYTQKFKGRFTISRDNAKNSLYLQMNSLRAEDTAVYYCARRDYFGAMDYWGQGTLVTVSS
VL: DIQMTQSPSSLSASVGDRVTITCRASQTISNNLHWYQQKPGKAPKLLIKSASLAISGVPSRFSGSGSGTDFTLTISSLQPEDFATYYCQQSNSWPNTFGGGTKVEIKR
notes: IgG1 with effector-function ablating CH2; Also used biotinylated; also called humanized TOA-1; Humanized TOA1
